# From patent US8586031B2, “Method of reusing rinse water from disinfecting packages with peracid and catalase” (Ecolab USA Inc., priority 2008, dated 2013)
# B1: Bovine Catalase: crystaline bovine liver catalase, Sigma Aldrich (protein, UniProt P00432 2-527, looked up)
# Catalase: ADNRDPASDQMKHWKEQRAAQKPDVLTTGGGNPVGDKLNSLTVGPRGPLLVQDVVFTDEMAHFDRERIPERVVHAKGAGAFGYFEVTHDITRYSKAKVFEHIGKRTPIAVRFSTVAGESGSADTVRDPRGFAVKFYTEDGNWDLVGNNTPIFFIRDALLFPSFIHSQKRNPQTHLKDPDMVWDFWSLRPESLHQVSFLFSDRGIPDGHRHMNGYGSHTFKLVNANGEAVYCKFHYKTDQGIKNLSVEDAARLAHEDPDYGLRDLFNAIATGNYPSWTLYIQVMTFSEAEIFPFNPFDLTKVWPHGDYPLIPVGKLVLNRNPVNYFAEVEQLAFDPSNMPPGIEPSPDKMLQGRLFAYPDTHRHRLGPNYLQIPVNCPYRARVANYQRDGPMCMMDNQGGAPNYYPNSFSAPEHQPSALEHRTHFSGDVQRFNSANDDNVTQVRTFYLKVLNEEQRKRLCENIAGHLKDAQLFIQKKAVKNFSDVHPEYGSRIQALLDKYNEEKPKNAVHTYVQHGSHLSAREKANL
# Assay: Decomposition of hydrogen peroxide by catalase in about 20,000 ppm acetic acid and 500-800 ppm hydrogen peroxide at 60° C., thiosulfate titration
# Format: biochemical
# Method: Example 1 compared the ability to various catalase enzymes at 100 ppm concentration to decompose hydrogen peroxide. For this example, an aliquot of a stock solution of catalase was added to 1000 ml of a solution containing about 20,000 ppm acetic acid and 500-800 ppm of hydrogen peroxide at 60° C. The catalase addition was done at a rate that produced an enzyme concentration of 100 ppm in the 1000 ml solution The concentration of the hydrogen peroxide was measured at time zero and at 5, 10, and 15 minutes. The concentration of hydrogen peroxide was measured via titration of a 10 ml aliquot of solution including 1-2 ml of […], 1-2 ml concentrated sulfuric acid, 4-5 drops of an oxygen catalyst (saturated solution of Ammonium Molybdate) and a few drops of a starch solution. The titrant was 0.1 N Sodium thio sulfate. The solution was titrated to a colorless endpoint and the peroxide concentration was calculated via the following calculation:
# Example 2 compared the ability to various catalase enzymes at 20 ppm concentration to decompose hydrogen peroxide. For this example, 20 ppm of catalase enzyme was diluted in 20,000 ppm acetic acid and 500-800 ppm of hydrogen peroxide at 60° C. The concentration of the hydrogen peroxide was measured at time zero and at 5, 10, and 15 minutes in the same manner as outlined in example 1.
molecule,measurement,setting,value
B1,decrease of the concentration of hydrogen peroxide,20 ppm catalase,did not measurably decrease
same,Hydrogen Peroxide Concentration,"20 ppm catalase, 0 minutes",600 ppm
same,Hydrogen Peroxide Concentration,"20 ppm catalase, 5 minutes",600 ppm
same,Hydrogen Peroxide Concentration,"20 ppm catalase, 10 minutes",600 ppm
same,Hydrogen Peroxide Concentration,"20 ppm catalase, 15 minutes",600 ppm
same,decreased the concentration of hydrogen peroxide by,"100 ppm catalase, 0 to 15 minutes",28.9 ppm
same,Hydrogen Peroxide Concentration,"100 ppm catalase, 0 minutes",581.4 ppm
same,Hydrogen Peroxide Concentration,"100 ppm catalase, 5 minutes",564.4 ppm
same,Hydrogen Peroxide Concentration,"100 ppm catalase, 10 minutes",561 ppm
same,Hydrogen Peroxide Concentration,"100 ppm catalase, 15 minutes",552.5 ppm
